This series has as its target alpha globin, endogenous, in perfused human omental arteries, P69905.

Chain of alpha globin, endogenous, in perfused human omental arteries, P69905 (P69905 2-142): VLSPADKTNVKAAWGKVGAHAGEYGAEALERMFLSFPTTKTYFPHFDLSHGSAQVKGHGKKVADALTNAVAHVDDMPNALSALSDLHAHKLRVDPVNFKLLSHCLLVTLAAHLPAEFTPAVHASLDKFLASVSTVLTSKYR

B1: endothelial nitric oxide synthase (eNOS), endogenous, in human resistance arteries (protein)
chain: GNLKSVAQEPGPPCGLGLGLGLGLCGKQGPATPAPEPSRAPASLLPPAPEHSPPSSPLTQPPEGPKFPRVKNWEVGSITYDTLSAQAQQDGPCTPRRCLGSLVFPRKLQGRPSPGPPAPEQLLSQARDFINQYYSSIKRSGSQAHEQRLQEVEAEVAATGTYQLRESELVFGAKQAWRNAPRCVGRIQWGKLQVFDARDCRSAQEMFTYICNHIKYATNRGNLRSAITVFPQRCPGRGDFRIWNSQLVRYAGYRQQDGSVRGDPANVEITELCIQHGWTPGNGRFDVLPLLLQAPDDPPELFLLPPELVLEVPLEHPTLEWFAALGLRWYALPAVSNMLLEIGGLEFPAAPFSGWYMSTEIGTRNLCDPHRYNILEDVAVCMDLDTRTTSSLWKDKAAVEINVAVLHSYQLAKVTIVDHHAATASFMKHLENEQKARGGCPADWAWIVPPISGSLTPVFHQEMVNYFLSPAFRYQPDPWKGSAAKGTGITRKKTFKEVANAVKISASLMGTVMAKRVKATILYGSETGRAQSYAQQLGRLFRKAFDPRVLCMDEYDVVSLEHETLVLVVTSTFGNGDPPENGESFAAALMEMSGPYNSSPRPEQHKSYKIRFNSISCSDPLVSSWRRKRKESSNTDSAGALGTLRFCVFGLGSRAYPHFCAFARAVDTRLEELGGERLLQLGQGDELCGQEEAFRGWAQAAFQAACETFCVGEDAKAAARDIFSPKRSWKRQRYRLSAQAEGLQLLPGLIHVHRRKMFQATIRSVENLQSSKSTRATILVRLDTGGQEGLQYQPGDHIGVCPPNRPGLVEALLSRVEDPPAPTEPVAVEQLEKGSPGGPPPGWVRDPRLPPCTLRQALTFFLDITSPPSPQLLRLLSTLAEEPREQQELEALSQDPRRYEEWKWFRCPTLLEVLEQFPSVALPAPLLLTQLPLLQPRYYSVSSAPSTHPGEIHLTVAVLAYRTQDGLGPLHYGVCSTWLSQLKPGDPVPCFIRGAPSFRLPPDPSLPCILVGPGTGIAPFRGFWQERLHDIESKGLQPTPMTLVFGCRCSQLDHLYRDEVQNAQQRGVFGRVLTAFSREPDNPKTYVQDILRTELAAEVHRVLCLERGHMFVCGDVTMATNVLQTVQRILATEGDMELDEAGDVIGVLRDQQRYHEDIFGLTLRTQEVTSRIRTQSFSLQERQLRGAVPWAFDPPGSDTNSP
With B1, the “ROI average fluorescence lifetime after co-labelling with the alpha globin and eNOS antibodies (FLIM, FRET-like shift)” value was “the eNOS + HBA ROIs lie at about 2.9 to 3.6 ns, below HBA alone (about 3.6 to 4.2 ns) and eNOS alone (about 3.8 to 4.15 ns); p<0.0001 printed for both comparisons”; the “fluorescence lifetime histogram after co-labelling with the alpha globin and eNOS antibodies (FLIM, FRET-like shift)” value was “the co-labelled curve d (HBA + eNOS) peaks at about 3.95 ns, left of HBA only (b, about 4.2 ns), eNOS only (c, about 4.25 ns) and unstained (a, about 4.35 ns)”.

(Values after patent US20260258113.)
